Experimental data published in US20200377588A1, “Highly Versatile Method of Presenting Cyclic Peptide on Protein Structure” (The University of Tokyo, priority 2017, published 2020).
Values belong to the molecule of their own block, whether it stands above or below them.

Legend:
EGFR-PA = biological target: T1, EGFR-PA (Homo sapiens, UniProt P00533); assay: pull-down type binding experiment, EGFR-PA captured on NZ-1 Sepharose, SDS-PAGE; details: Example 1, Fn10-Fc mutants, culture supernatant, FIG. 5
T1 construct: made in house; host or cells: Expi293F cells (secreted, culture supernatant)
Method: (§1) A pull-down type binding experiment was performed to study whether or not Fn10-Fc having various cyclic peptides fused therein retained its binding ability, which the cyclic peptides had before fusion, to binding molecules. In accordance with the method described in Protein Exp. Purification, 2014, 95, 240-247, respective constructs encoding fusion proteins having a PA tag (product of Wako Pure Chemical Industries) added to the C terminus of an extracellular region of four binding molecules (each, single-pass membrane receptor) were created and the resulting constructs were each incorporated in an expression vector pcDNA3.1 (product of Thermo Fisher Scientific). After transient expression in Expi293F cells by the above-described method while using the vector, respective culture supernatants containing Plexin B1-PA, Met-PA, EGFR-PA, and TrkB-PA, which were soluble receptor fragments, were prepared.
(§2) To 0.5 mL of the culture supernatant containing the PA-tag added receptor extracellular region, 30 μL of Sepharose (product of Wako Pure Chemical Industries) on which NZ-1, an anti-PA tag antibody, was immobilized and the resulting mixture was mixed by rotation for 2 hours to capture the binding molecule on Sepharose. […]

Met-PA = biological target: T2, Met-PA (Homo sapiens, UniProt P08581); assay: pull-down type binding experiment, Met-PA captured on NZ-1 Sepharose, SDS-PAGE; details: Example 1, Fn10-Fc mutants, culture supernatant, FIG. 5
T2 construct: made in house; host or cells: Expi293F cells (secreted, culture supernatant)
T2 sequence (P08581 25-932 limits assumed): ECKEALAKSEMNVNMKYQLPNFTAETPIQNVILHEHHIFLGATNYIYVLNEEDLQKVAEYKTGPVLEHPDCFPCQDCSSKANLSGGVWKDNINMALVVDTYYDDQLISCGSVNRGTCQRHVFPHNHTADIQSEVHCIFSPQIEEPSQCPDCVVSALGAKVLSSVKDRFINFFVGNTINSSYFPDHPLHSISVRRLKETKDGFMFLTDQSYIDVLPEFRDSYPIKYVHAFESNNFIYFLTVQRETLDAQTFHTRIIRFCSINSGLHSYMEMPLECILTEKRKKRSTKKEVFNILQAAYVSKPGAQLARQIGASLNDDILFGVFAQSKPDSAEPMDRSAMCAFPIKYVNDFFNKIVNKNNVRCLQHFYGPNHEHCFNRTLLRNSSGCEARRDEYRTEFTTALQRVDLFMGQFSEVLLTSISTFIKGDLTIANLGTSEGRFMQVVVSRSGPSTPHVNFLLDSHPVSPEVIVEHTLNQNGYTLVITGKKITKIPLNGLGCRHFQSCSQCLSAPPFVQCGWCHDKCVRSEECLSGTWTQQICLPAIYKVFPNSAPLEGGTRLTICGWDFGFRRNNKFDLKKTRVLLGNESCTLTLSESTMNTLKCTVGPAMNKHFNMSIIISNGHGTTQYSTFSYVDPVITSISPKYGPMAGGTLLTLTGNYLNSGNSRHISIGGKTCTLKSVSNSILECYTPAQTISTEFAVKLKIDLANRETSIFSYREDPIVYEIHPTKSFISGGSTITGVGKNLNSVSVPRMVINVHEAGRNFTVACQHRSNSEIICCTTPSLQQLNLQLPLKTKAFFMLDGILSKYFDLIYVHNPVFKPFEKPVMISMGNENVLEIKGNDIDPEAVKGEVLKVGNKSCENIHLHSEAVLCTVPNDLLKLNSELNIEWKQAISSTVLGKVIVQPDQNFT

Plexin B1-PA = biological target: T3, Plexin B1-PA (Homo sapiens, UniProt O43157); assay: pull-down type binding experiment, Plexin B1-PA captured on NZ-1 Sepharose, SDS-PAGE
T3 construct: made in house; host or cells: Expi293F cells (secreted, culture supernatant)
T3 sequence (O43157 20-1490 limits assumed): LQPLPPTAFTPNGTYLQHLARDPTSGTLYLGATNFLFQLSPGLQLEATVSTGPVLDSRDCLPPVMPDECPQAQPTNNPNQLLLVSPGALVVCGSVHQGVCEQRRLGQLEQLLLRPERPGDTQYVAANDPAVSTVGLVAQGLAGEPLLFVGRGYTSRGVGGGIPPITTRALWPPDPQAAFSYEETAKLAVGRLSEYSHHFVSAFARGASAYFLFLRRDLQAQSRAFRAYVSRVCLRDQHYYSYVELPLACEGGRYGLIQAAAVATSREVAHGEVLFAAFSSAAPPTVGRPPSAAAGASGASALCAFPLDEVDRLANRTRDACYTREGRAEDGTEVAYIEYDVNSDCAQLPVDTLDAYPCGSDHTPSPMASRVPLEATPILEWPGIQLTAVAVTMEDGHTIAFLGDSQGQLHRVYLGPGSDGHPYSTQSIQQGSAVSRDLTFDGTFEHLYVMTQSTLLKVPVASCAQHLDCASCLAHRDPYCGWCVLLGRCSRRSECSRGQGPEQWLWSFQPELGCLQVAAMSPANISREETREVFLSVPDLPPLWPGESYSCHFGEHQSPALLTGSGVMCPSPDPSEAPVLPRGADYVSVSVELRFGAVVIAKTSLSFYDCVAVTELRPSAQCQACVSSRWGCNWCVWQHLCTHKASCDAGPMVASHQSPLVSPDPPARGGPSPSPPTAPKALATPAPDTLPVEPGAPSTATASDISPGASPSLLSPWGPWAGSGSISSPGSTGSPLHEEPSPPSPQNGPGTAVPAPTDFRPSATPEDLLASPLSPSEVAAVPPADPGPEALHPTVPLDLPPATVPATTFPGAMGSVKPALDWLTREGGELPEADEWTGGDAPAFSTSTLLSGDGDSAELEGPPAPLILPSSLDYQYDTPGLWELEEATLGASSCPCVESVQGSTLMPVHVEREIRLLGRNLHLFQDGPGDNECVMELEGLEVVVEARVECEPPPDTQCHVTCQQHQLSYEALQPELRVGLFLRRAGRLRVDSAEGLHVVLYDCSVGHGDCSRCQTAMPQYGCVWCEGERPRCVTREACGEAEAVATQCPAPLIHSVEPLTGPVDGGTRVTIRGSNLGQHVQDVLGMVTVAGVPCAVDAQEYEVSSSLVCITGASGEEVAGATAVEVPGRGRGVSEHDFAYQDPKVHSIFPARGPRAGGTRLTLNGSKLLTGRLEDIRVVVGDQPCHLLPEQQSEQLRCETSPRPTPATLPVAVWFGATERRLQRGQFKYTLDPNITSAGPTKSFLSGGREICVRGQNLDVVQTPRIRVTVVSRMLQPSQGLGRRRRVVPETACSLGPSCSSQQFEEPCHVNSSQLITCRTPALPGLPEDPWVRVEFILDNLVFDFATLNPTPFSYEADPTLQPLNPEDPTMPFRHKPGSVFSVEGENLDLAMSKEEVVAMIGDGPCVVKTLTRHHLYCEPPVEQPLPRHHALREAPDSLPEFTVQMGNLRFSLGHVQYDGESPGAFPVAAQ
Method: as §1, §2

TrkB-PA = biological target: T4, TrkB-PA (Homo sapiens, UniProt Q16620); assay: pull-down type binding experiment, TrkB-PA captured on NZ-1 Sepharose, SDS-PAGE; details: Example 1, Fn10-Fc mutants, culture supernatant, FIG. 5
T4 construct: made in house; host or cells: Expi293F cells (secreted, culture supernatant)
Method: as §1, §2

Plexin B1-Fc = biological target: T5, Plexin B1-Fc (Homo sapiens, UniProt O43157); assay: pulldown, Plexin B1-Fc captured on protein A-Sepharose, SDS-PAGE; format: binding; details: Example 7, PLAP mutants, FIG. 27
T5 construct: Protein A Sepharose that had captured a soluble receptor fragment Plexin B1-Fc therein
T5 sequence (O43157 20-1490 limits assumed): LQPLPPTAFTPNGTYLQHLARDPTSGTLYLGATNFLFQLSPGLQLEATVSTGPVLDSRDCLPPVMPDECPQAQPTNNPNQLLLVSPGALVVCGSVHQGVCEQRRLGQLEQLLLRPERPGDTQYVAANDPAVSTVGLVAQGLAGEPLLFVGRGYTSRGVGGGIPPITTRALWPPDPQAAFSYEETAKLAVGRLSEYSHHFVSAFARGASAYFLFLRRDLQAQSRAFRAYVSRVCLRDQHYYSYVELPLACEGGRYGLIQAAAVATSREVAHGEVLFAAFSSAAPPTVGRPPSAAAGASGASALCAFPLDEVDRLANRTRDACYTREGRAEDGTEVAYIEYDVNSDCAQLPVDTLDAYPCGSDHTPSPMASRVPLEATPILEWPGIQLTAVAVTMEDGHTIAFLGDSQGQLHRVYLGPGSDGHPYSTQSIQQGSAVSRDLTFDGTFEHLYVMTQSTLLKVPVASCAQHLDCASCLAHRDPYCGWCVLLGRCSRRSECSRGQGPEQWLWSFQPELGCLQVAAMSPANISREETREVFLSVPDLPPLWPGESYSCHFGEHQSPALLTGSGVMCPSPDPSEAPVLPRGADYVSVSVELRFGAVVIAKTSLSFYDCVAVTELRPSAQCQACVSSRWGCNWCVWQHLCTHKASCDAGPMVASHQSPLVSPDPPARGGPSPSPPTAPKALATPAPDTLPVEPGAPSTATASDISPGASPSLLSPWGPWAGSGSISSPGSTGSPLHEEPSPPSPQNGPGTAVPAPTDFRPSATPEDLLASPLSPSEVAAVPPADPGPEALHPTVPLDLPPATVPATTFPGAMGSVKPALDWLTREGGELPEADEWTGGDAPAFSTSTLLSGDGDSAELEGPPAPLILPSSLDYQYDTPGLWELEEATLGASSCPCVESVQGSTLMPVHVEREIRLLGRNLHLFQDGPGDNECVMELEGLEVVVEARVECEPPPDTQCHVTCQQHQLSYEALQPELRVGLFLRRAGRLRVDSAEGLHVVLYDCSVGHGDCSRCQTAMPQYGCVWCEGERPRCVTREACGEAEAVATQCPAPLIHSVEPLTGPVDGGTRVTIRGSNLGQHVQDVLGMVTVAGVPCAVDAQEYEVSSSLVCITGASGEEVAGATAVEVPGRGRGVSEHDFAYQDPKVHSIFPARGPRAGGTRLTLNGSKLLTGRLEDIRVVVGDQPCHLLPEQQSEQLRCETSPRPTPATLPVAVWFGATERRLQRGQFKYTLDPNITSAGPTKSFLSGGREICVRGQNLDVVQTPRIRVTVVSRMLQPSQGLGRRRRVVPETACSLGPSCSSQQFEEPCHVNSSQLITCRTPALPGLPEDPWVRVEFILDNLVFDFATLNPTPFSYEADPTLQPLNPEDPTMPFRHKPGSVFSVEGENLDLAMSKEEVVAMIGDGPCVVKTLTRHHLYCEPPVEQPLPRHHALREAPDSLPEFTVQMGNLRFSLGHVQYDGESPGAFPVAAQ
Source text: It is to be noted, however, that for the mP6-9 peptide fusion protein, not Plexin B1-PA but Plexin B1-Fc protein was used as a binding molecule and as pulldown beads, not NZ-1-Sepharose but protein A-Sepharose was used.

Met-Fc = biological target: T6, Met-Fc (Homo sapiens, UniProt P08581); assay: pulldown, Met-Fc captured on Protein A Sepharose, SDS-PAGE; format: binding; details: Example 7, PLAP mutants, FIG. 27
T6 construct: captured a soluble receptor fragment Plexin B1-Fc or Met-Fc therein
T6 sequence (P08581 25-932 limits assumed): as the sequence (P08581 25-932 limits assumed) above
Source text: Binding of the resulting cyclic peptide fusion protein (PLAP mutant) to Protein A Sepharose that had captured a soluble receptor fragment Plexin B1-Fc or Met-Fc therein by the method described above I Example 1 was studied by the pulldown method.

binding to EGFR-PA (pulldown) (EGFR-PA): did not show a binding property | binding to Met-PA (pulldown) (Met-PA): did not show a binding property | binding to Plexin B1-PA (pulldown) (Plexin B1-PA; Example 1, Fn10-Fc mutants, culture supernatant, FIG. 5): did not show a binding property | binding to TrkB-PA (pulldown) (TrkB-PA): did not show a binding property
Molecule: Fn10-Fc: tenth Type III repeat domain of human fibronectin (residues 1418 to 1509) fused to human IgG1 Fc, no peptide inserted; control

binding to Plexin B1-PA (pulldown) (Plexin B1-PA; Example 5, hGH mutants, FIG. 20B): does not bind to Plexin B1-PA
Molecule: hGH: full-length human growth hormone with Hisx8 tag and TEV site, no cyclic peptide fused; control

binding to Plexin B1-Fc (pulldown) (Plexin B1-Fc): does not bind | binding to Met-Fc (pulldown) (Met-Fc): does not bind
B1: PLAP: full-length human placental alkaline phosphatase with Myc and Hisx6 tags, no cyclic peptide fused; control (protein, UniProt P05187 1-535, looked up)
chain: MLGPCMLLLLLLLGLRLQLSLGIIPVEEENPDFWNREAAEALGAAKKLQPAQTAAKNLIIFLGDGMGVSTVTAARILKGQKKDKLGPEIPLAMDRFPYVALSKTYNVDKHVPDSGATATAYLCGVKGNFQTIGLSAAARFNQCNTTRGNEVISVMNRAKKAGKSVGVVTTTRVQHASPAGTYAHTVNRNWYSDADVPASARQEGCQDIATQLISNMDIDVILGGGRKYMFRMGTPDPEYPDDYSQGGTRLDGKNLVQEWLAKRQGARYVWNRTELMQASLDPSVTHLMGLFEPGDMKYEIHRDSTLDPSLMEMTEAALRLLSRNPRGFFLFVEGGRIDHGHHESRAYRALTETIMFDDAIERAGQLTSEEDTLSLVTADHSHVFSFGGYPLRGSSIFGLAPGKARDRKAYTVLLYGNGPGYVLKDGARPDVTESESGSPEYRQQSAVPLDEETHAGEDVAVFARGPQAHLVHGVQEQTFIAHVMAFAACLEPYTACDLAPPAGTTDAAHPGRSVVPALLPLLAGTLLLLETATAP
modifications: full-length Myc and His6 tags
notes: full-length human placental alkaline phosphatase with Myc and Hisx6 tags, no cyclic peptide fused; control
